One block for each binder: values may come before it.
Tests used:
[1] = biological target: T1, His-tagged human CD38 (ACRO Biosystems cat #CD8-H5224) (human, UniProt P28907 43-300); experiment: ELISA, coated His-CD38
T1 construct: bought recombinant protein with His tag

[2] = biological target: T2, His-tagged cynomolgus monkey CD38 (ACRO Biosystems cat #CD8-05223) (cynomolgus monkey, UniProt Q5VAN0 43-301); experiment: ELISA, coated His-CD38
T2 construct: bought recombinant protein with His tag

[3] = biological target: T1, His-tagged human CD38 (ACRO Biosystems …); experiment: SPR, captured scFv-Fc, His-CD38 analyte;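 further: SPR on a Carterra LSA, scFv-Fc captured by anti-human Fc on HC30M chip, His-tagged CD38 (human, mouse, cynomolgus) flowed as analyte in eight 1:2 steps from 400 nM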
[4] = biological target: T2, His-tagged cynomolgus monkey CD38 (ACRO …); experiment: SPR, captured scFv-Fc, His-CD38 analyte;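 further: SPR on a Carterra LSA, scFv-Fc captured by anti-human Fc on HC30M chip, His-tagged CD38 (human, mouse, cynomolgus) flowed as analyte in eight 1:2 steps from 400 nM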
[5] = biological target: T3, His-tagged mouse CD38 (ACRO Biosystems #CD8-M5223) (mouse, UniProt P56528 45-304); experiment: SPR, captured scFv-Fc, His-CD38 analyte;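 further: SPR on a Carterra LSA, scFv-Fc captured by anti-human Fc on HC30M chip, His-tagged CD38 (human, mouse, cynomolgus) flowed as analyte in eight 1:2 steps from 400 nM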
T3 construct: bought recombinant protein with His tag; also called Murine
T3 sequence (looked up): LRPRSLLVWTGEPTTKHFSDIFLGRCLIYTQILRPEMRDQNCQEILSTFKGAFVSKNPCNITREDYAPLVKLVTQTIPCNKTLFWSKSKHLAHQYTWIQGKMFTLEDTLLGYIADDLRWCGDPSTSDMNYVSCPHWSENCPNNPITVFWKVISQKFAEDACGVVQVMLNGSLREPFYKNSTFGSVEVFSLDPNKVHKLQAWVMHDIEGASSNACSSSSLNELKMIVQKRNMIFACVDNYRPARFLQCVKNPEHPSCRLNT

[6] = biological target: T4, human CD38 on transiently transfected Expi293 cells (Origene #SC321273) (human, UniProt P28907 1-300); experiment: flow cytometry, transfected Expi293 cells;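 further: antibody binding to Expi293 cells transiently expressing human or murine CD38, antibodies applied at 10 ug/ml for 60 min on ice, read by flow cytometry as percent gated cells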
T4 construct: whole, on cells; also called Human (FACs)

[7] = biological target: T5, murine CD38 on transiently transfected Expi293 cells (Origene MC208001) (murine, UniProt P56528 1-304); experiment: flow cytometry, transfected Expi293 cells;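 further: antibody binding to Expi293 cells transiently expressing human or murine CD38, antibodies applied at 10 ug/ml for 60 min on ice, read by flow cytometry as percent gated cells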
T5 construct: whole, on cells; also called Murine (FACs)
T5 sequence (looked up): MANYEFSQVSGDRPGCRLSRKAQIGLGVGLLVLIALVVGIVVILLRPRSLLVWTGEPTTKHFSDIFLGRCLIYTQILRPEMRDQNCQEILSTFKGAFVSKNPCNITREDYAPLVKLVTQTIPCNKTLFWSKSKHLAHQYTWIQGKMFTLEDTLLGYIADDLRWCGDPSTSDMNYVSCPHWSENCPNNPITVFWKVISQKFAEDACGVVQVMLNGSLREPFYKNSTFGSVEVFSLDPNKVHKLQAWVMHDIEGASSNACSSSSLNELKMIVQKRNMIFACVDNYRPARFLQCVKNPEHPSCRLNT

[8] = biological target: T3, His-tagged mouse CD38 (ACRO Biosystems …); experiment: ELISA, coated His-CD38

B1: 40596p1.H7 (scFv, V domains shown)
VH: EVQLLESGGGLVQPGGSLRLSCAASGFDFSTYAMTWVRQAPGKGLEWVAGNGWSGSFTYYADSVKGRFTVSRDNSKNTLYLQMNSLRAEDTAVYYCTRNPGFGEMDVWGQGTTVTVSS
VL: EIVLTQSPGTLRLSPGERATLSCRASQTVGTTLAWYQQKPGQAPRLLIHGASTRATDIPDRFSGSGSGTEFTLTISSLQSEDFADYYCQQYKSWPPLTFGGGTKVEIK
notes: tested as scFv-Fc supernatant
ELISA 1 ug/ml [1]: 1.94 | ELISA 1 ug/ml [2]: 1.89 | Kd [3]: 86.7 nM | Kd [4]: 114 nM | Kd [5]: 51.6 nM | FACs 10 ug/ml (percent gated) [6]: 71.7% | FACs 10 ug/ml (percent gated) [7]: 62.8%

B2: 40596p1.F6 (scFv, V domains shown)
VH: EVQLLESGGGLVQPGGSLRLSCAASGFDFSKNAMSWVRQAPGKGLEYVAGSGWSGSFIFYADSVKGRFTVSRDNSENTLYLQMSSLRAEDTAVYYCAKNPGFGEMDVWGQGTTVTVSS
VL: EIVLTQSPGSLFLSPGERATLTCRASQTIGSNLAWYQQKFGQAPRLLIYGASTRAADIPDRFSGSGSGTEFTLTISSLQSEDFAVYYCQQYNSWPPLTFGGGTKVEIK
notes: tested as scFv-Fc supernatant
ELISA 1 ug/ml [1]: 1.91 | ELISA 1 ug/ml [2]: 1.87 | ELISA 1 ug/ml [8]: 1.9 | Kd [3]: 84.7 nM | Kd [4]: 98.4 nM | Kd [5]: 10.8 nM | FACs 10 ug/ml (percent gated) [6]: 72.8% | FACs 10 ug/ml (percent gated) [7]: 68.6%

B4: 40566p1.D2 (scFv, V domains shown)
VH: DVQLVESGGGVVRPGESLRLSCAASGFTFDNYDMTWVRQAPGEGLEWVSFISSRGTFTYYTDSVKGRFTISRDNSKNTLYLQMNSLRAEDTAIYYCTKDSGEYYFFDYWGLGTLVTVSS
VL: EIVMTQSPATLSVSPGERATFSCRASQSVNSKLAWYQQKPGQAPRLLIYGASRRATGIPDRFSGSGSGTEFTLTISSLQSEDFAVYYCQQYYDWPPLTFGGGTKVEIK
notes: tested as scFv-Fc supernatant
ELISA 1 ug/ml [1]: 1.96 | ELISA 1 ug/ml [2]: 1.83 | ELISA 1 ug/ml [8]: 1.74 | Kd [3]: 11.8 nM | Kd [4]: 29.8 nM | Kd [5]: 1.74 nM | FACs 10 ug/ml (percent gated) [6]: 20.1% | FACs 10 ug/ml (percent gated) [7]: 71.2%

B6: 40566p1.F8 (scFv, V domains shown)
VH: DVQLVESGGGVVRPGESLRLSCAASGFTFDNYDMTWVRQAPGEGLEWVSFISSRGTFAYYTDSVKGRFTISRDNSKNTLYLQMNSLRAEDTAIYYCTKDSGEYYFFDYWGLGTLVTVSS
VL: EIVMTQSPATLSVSPGERATFSCRASQSVNSKLAWYQQKPGQAPRLLIYGASRRATGIPDRFSGSGSGTEFTLTISSLQSEDFAVYYCQQYYDWPPLTFGGGTKVEIK
notes: tested as scFv-Fc supernatant
ELISA 1 ug/ml [1]: 1.75 | ELISA 1 ug/ml [2]: 1.8 | ELISA 1 ug/ml [8]: 1.88 | Kd [3]: 10900 nM | Kd [4]: 4.82 nM | Kd [5]: 7.59 nM | FACs 10 ug/ml (percent gated) [6]: 19.5% | FACs 10 ug/ml (percent gated) [7]: 72.1%

B7: 40566p1.B11 (scFv, V domains shown)
VH: DVQLVESGGGLVRPGESLRLSCAASGFTFDNYDMTWVRQAPGEGLEWVSFISSRGTFTYYTDSVKGRFTISRDNSKNTLYLQMNSLRAEDTAIYYCAKDSGEYYFFDYWGLGTLVTVSS
VL: EIVMTQSPATLSVSPGERATFSCRASQSVNSKLAWYQQKPGQAPRLLIYGASRRATGIPDRFSESGSGTEFTLTISSLQSEDFAVYYCQQYHDWPPLTFGGGTKVEIK
notes: tested as scFv-Fc supernatant
ELISA 1 ug/ml [1]: 1.43 | ELISA 1 ug/ml [2]: 1.44 | ELISA 1 ug/ml [8]: 1.24 | Kd [3]: 104 nM | Kd [4]: 549 nM | Kd [5]: 224 nM | FACs 10 ug/ml (percent gated) [6]: 6.05% | FACs 10 ug/ml (percent gated) [7]: 49.9%

These reach a lower Kd [5]. Values come first.

ELISA 1 ug/ml [1]: 1.89 | ELISA 1 ug/ml [2]: 1.81 | ELISA 1 ug/ml [8]: 1.93 | Kd [3]: 43800 nM | Kd [4]: 5.68 nM | Kd [5]: 1.32 nM | FACs 10 ug/ml (percent gated) [6]: 21.1% | FACs 10 ug/ml (percent gated) [7]: 74.1%
B5: 40566p1.B3 (scFv, V domains shown)
VH: DVQLVESGGGVVRPGESLRLSCAASGFTFDNYDMTWVRQAPGEGLEWVSFISSRGTFTYYTDSVRGRFTISRDNSKNTLYLEMNSLRAEDTAIYYCAKDSGEYYFFDYWGLGTLVTVSS
VL: EIVMTQSPATLSVSPGERATFSCRASQSVNSKLAWYQQKPGQAPRLLIYGASRRATGIPDRFSGSGSGTEFTLTISSLQSEDFAVYYCQQYYDWPPLTFGGGTKVEIK
notes: tested as scFv-Fc supernatant

ELISA 1 ug/ml [1]: 1.99 | ELISA 1 ug/ml [2]: 1.85 | ELISA 1 ug/ml [8]: 2.12 | Kd [3]: 202000 nM | Kd [4]: 2.66 nM | Kd [5]: 1.31 nM | FACs 10 ug/ml (percent gated) [6]: 14.2% | FACs 10 ug/ml (percent gated) [7]: 72.8%
B3: 40566p1.A7 (scFv, V domains shown)
VH: RELVESGGGVVRPGESLRLSCAASGFTFDNYDMTWVRQAPGEGLEWVSFISSRGTFTYYTDSVRGRFTISRDNSKNTLYLEMNSLRAEDTAIYYCAKDSGEYYFFDYWGLGTLVTVSS
VL: EIVMTQSPATLSVSPGERATFSCRASQSVNSKLAWYQQKPGQAPRLLIYGASRRATGIPDRFSGSGSGTEFTLTISSLQSEDFAVYYCQQYYDWPPLTFGGGTKVEIK
notes: tested as scFv-Fc supernatant

ELISA 1 ug/ml [1]: 1.92 | ELISA 1 ug/ml [2]: 1.74 | ELISA 1 ug/ml [8]: 1.86 | Kd [3]: 465 nM | Kd [5]: 0.478 nM | FACs 10 ug/ml (percent gated) [6]: 26.4% | FACs 10 ug/ml (percent gated) [7]: 75.3%
B9: 40566p1.C1 (scFv, V domains shown)
VH: DVQLVESGGGVVRPGESLRLSCAASGFTFDNYDMTWVRQAPGEGLEWVSFISSRGTFTYYTDSVKGRFTISRDNSKNTLYLQMNSLRAEDTAIYYCTKDSGEYYFFDYWGLGTLVTVSS
VL: ETVMTQSPATLSVSPGERATFSCRASQSVNSKLAWYQQKPGQAPRLLIYGASRRATGIPDRFSGSGSGTEFTLTISSLQSEDFAVYYCQQYYDWPPLTFGGGTKVEIK
notes: tested as scFv-Fc supernatant

ELISA 1 ug/ml [1]: 1.83 | ELISA 1 ug/ml [2]: 1.95 | ELISA 1 ug/ml [8]: 2.17 | Kd [4]: 3880 nM | Kd [5]: 0.375 nM | FACs 10 ug/ml (percent gated) [6]: 32% | FACs 10 ug/ml (percent gated) [7]: 76%
B10: 40566p1.F1 (scFv, V domains shown)
VH: DVQLVESGGGVVRPGESLRLSCAASGFTFDNYDMTWVRQAPGEGLEWVSFISSRGTFTYYTDSVKGRFTISRDNSKNTLYLQMNSLRAEDTAIYYCTKDSGEYYFFDYWGLGTLVTVSS
VL: ETVMTQSPATLSVSPGERATFSCRASQSVNGKLAWYQQKPGQAPRLLIYDASRRATGIPDRFSGSGSGTEFTLTISSLQSEDFAVYYCQQYYDWPPLTFGGGTKVEIK
notes: tested as scFv-Fc supernatant; also called 40566p1.Fl

ELISA 1 ug/ml [1]: 1.83 | ELISA 1 ug/ml [2]: 1.66 | ELISA 1 ug/ml [8]: 1.97 | Kd [3]: 0.269 nM | Kd [4]: 4.67 nM | Kd [5]: 0.351 nM | FACs 10 ug/ml (percent gated) [6]: 31.3% | FACs 10 ug/ml (percent gated) [7]: 76.9%
B8: 40566p1.C9 (scFv, V domains shown)
VH: DVQLVESGGGVVRPGESLRLSCAASGFTFDNYDMTWVRQAPGEGLEWVSFISSRGTFTYYTDSVKGRFTISRDNSKNTLYLQMNSLRAEDTAIYYCTKDSGEYYFFDYWGLGTLVTVSS
VL: ETVMTQSPATLSVSPGERATFSCRASQSVNSKLAWYQQKPGQAPRLLIYDASRRATGIPDRFSGSGSGTEFTLTISSLQSEDFAVYFCQQYYDWPPLTFGGGTKVEIK
notes: tested as scFv-Fc supernatant

— patent US20220306762A1 (CRYSTAL BIOSCIENCE, published 2022)
